The numbers were not newly measured in patent US6100293A, “Tetracyclic triterpene derivatives with immunosuppressant activity” (Merck & Co., Inc., priority 1998, dated 2000), which cites them from elsewhere.

The target of this data set is T1, Kv 1.3 channels (Homo sapiens, UniProt P22001).
T1 construct: expressed in transfected cells; host or cells: CHO cells
The conditions noted are these: reference peptide used at saturating concentration to set the efflux window; read-out: IC50 (blocker of Kv 1.3 channels).

T1 sequence (P22001 whole entry): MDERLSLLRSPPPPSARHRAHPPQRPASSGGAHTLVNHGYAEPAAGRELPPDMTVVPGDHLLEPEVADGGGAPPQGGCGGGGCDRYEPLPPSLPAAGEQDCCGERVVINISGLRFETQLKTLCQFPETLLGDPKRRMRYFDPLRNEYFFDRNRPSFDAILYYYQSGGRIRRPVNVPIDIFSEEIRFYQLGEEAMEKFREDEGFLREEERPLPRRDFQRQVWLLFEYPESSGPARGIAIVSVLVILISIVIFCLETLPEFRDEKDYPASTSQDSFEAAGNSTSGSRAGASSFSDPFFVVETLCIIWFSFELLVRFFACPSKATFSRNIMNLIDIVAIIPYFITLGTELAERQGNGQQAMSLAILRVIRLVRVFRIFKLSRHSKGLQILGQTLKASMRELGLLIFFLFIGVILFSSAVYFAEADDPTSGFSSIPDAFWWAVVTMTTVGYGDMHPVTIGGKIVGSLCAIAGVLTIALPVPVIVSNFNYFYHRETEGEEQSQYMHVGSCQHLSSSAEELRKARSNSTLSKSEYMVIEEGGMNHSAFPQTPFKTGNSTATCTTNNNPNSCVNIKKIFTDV

As a reminder, the IC50 is the point on the concentration scale where inhibition reaches its midpoint. For the substance “margatoxin (TIINVKCTSPKQCLPPCKAQFGQSAGAKCMNGKCKCYPH; UniProt P40755 1-39, looked up)”, the IC50 was 0.1 nM.
